Assay results as given in publication PMC6738421.

Tests used:
[1] = molecular target: Arginyl-tRNA-protein transferase Ate1, isoform Ate1-3 (mouse) (UniProt Q9Z2A5)
[2] = molecular target: Arginyl-tRNA-protein transferase Ate1, isoform Ate1-1 (mouse) (UniProt Q9Z2A5)
Arginyl-tRNA-protein transferase Ate1, isoform Ate1-1 (mouse), sequence (Q9Z2A5 whole entry, canonical isoform): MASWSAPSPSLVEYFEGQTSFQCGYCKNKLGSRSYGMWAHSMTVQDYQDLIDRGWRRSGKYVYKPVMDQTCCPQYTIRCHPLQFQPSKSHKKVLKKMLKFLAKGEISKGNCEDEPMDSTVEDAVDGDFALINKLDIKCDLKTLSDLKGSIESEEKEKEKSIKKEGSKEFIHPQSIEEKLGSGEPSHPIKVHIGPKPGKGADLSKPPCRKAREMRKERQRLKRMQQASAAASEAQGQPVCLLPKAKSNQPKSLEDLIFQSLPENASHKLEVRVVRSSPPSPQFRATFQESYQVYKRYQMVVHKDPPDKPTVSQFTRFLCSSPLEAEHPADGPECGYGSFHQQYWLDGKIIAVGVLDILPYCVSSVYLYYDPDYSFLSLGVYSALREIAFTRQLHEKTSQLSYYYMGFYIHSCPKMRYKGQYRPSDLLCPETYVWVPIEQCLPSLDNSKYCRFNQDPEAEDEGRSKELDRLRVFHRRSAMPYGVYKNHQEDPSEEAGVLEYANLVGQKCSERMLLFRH

BSA, sequence (P02769 25-607): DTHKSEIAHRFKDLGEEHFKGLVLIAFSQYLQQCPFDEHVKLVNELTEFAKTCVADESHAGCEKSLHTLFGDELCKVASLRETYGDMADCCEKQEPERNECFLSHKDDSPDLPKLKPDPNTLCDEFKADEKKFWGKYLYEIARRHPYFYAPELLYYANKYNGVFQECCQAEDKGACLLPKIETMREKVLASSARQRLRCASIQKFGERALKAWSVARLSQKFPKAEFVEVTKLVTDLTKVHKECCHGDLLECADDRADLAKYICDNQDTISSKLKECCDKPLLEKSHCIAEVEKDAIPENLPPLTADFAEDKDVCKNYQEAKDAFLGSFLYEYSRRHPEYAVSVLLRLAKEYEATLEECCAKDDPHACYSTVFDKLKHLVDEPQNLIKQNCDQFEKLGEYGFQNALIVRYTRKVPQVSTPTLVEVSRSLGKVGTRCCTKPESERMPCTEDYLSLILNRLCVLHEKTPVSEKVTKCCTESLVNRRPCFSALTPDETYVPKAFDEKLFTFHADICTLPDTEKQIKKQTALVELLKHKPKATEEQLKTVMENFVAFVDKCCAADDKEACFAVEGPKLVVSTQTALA
Arginyl-tRNA-protein transferase Ate1, isoform Ate1-3 (mouse), sequence (Q9Z2A5 other isoform, or with tags, fused parts or gaps): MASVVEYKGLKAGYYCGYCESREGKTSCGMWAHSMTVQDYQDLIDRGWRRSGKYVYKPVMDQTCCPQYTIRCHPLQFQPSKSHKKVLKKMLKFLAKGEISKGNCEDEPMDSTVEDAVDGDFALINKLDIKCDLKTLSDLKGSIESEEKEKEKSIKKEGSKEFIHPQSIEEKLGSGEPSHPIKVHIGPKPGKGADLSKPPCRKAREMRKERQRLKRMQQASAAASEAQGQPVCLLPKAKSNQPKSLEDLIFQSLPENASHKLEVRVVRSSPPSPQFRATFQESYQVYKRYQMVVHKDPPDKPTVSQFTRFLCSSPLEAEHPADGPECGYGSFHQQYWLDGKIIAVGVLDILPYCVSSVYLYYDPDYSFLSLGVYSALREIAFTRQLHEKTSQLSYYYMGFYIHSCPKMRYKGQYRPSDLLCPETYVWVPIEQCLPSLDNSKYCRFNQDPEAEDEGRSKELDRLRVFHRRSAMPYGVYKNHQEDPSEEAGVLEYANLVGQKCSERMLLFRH

BSA (from UniProt P02769 25-607) (natural protein)
Km of arginylation of the substrate by Ate1-3 (enzyme kinetics by ITC) [1]: 52.5 µM
Km of arginylation of the substrate by Ate1-1 (enzyme kinetics by ITC) [2]: 33.2 µM
